Tests used:
[1] = tested on: isolated pancreatic islet cells; assay: Insulin secretion from mouse isolated pancreatic islets; assay type: cell-based; settings: CYSTM1 1-1000 nM, 5.6 mM then 16.7 mM glucose, 45 min
Protocol: (§1) FIGS. 6A-6C show the change in insulin secretion from different pancreatic cells in a low (5.6 mM) and high (16.7 mM) glucose level treated by different concentrations of CYSTM1: FIG. 6A: MIN6 cells; FIG. 6B: β-TC-6 cells; FIG. 6C: mouse-isolated pancreatic islets (n=5-6 per cell type);
(§2) In this example, in vitro assays of insulin secretion in response to CYSTM1 treatment in low and high-glucose environments on the pancreatic cell lines (MIN6 and B-TC-6) and mouse isolated pancreatic islets were performed. Mouse insulinoma, MIN6 cells, were cultured in DMEM (Gibco) supplemented with 10% (v/v) FBS (Lonza), 100 U/mL penicillin and […], and 70 μM freshly added β-mercaptoethanol (Gibco) (37° C., 5% CO2). B-TC-6 cells were grown in RPMI 1640 medium (Gibco) containing 5.5 mM glucose and supplemented with 10% (v/v) FBS, 100 U/mL penicillin and […], and 2 mM L-glutamine. […] Following 45 min incubation of KRB solution, each well was removed and the insulin content of each sample was determined by a mouse insulin ELISA kit. The efficacy of CYSTM1 to stimulate insulin secretion was evaluated in each of the pancreatic cell lines: MIN6 cells (FIG. 6A), B-TC-6 cells (FIG. 6B), and isolated pancreatic islet cells (FIG. 6C).

[2] = tested on: STZ-induced diabetic male mice; assay: Daily oral CYSTM1 in STZ-induced diabetic mice; assay type: in vivo, mouse; settings: vs saline
Protocol: Turning to FIG. 7J, standard chow diet (STC) mice were injected with streptozotocin (STZ) to induce diabetes for five days and then treated with either CYSTM1 protein (1 mg/kg) or saline daily. The group of mice treated with saline were regarded as the control group.

[3] = tested on: MIN6 cells; assay: Insulin secretion from MIN6 cells at low and high glucose; assay type: cell-based, mouse; settings: CYSTM1 1-1000 nM, 5.6 mM or 16.7 mM glucose, 45 min
Protocol: as §1, §2

[4] = tested on: 3T3-L1 adipocytes; assay: 2-NBDG glucose uptake in 3T3-L1 adipocytes; assay type: cell-based; settings: 3T3-L1 adipocytes, CYSTM1 1-1000 nM, 1 h
Protocol: (§3) To determine whether CYSTM1 can increase glucose uptake in adipocytes, in vitro assays of 2-NBDG uptake in response to CYSTM1 treatment and potential inhibitors in 3T3-L1 adipocytes and mouse primary adipocytes were performed. 3T3-L1 preadipocytes were maintained in Dulbecco's modified Eagle's medium (DMEM) supplemented with 10% fetal bovine serum. Two days after confluence, 3T3-L1 cells were induced to differentiation using the standard adipogenic cocktail (0.5 mM IBMX, 1 μM dexamethasone and 10 μg/ml insulin) that was applied for 4 days and followed by 10 μg/ml insulin treatment for additional 4 days. The culture medium was changed every other day. The differentiated cells were maintained in normal serum containing DMEM. Mouse primary adipocytes were isolated from 10 to 12-week-old male C57BL/6J mice using a collagenase digestion protocol as described, briefly, white fat pads were removed, minced and digested using collagenase for 60-90 min at 37° C. in Krebs-Ringers phosphate HEPES buffer (KRPH) (15 mM HEPES, pH 7.4, 118 mM NaCl, 4.8 mM KCl, 1.2 mM MgSO4, 1.3 mM CaCl2, 1.2 mM KHPO3, 0.1% BSA). The stromal vascular fraction was separated from the adipocytes and cultured using DMEM and differentiated the same as 3T3-L1 adipocytes as described above. […] NBDG uptake was measured using a fluorescent microplate reader (Thermo Scientific Varioskan LUX Multimode Microplate Reader).

[5] = tested on: B-TC-6 cells; assay: Insulin secretion from B-TC-6 cells at low and high glucose; assay type: cell-based; settings: CYSTM1 1-1000 nM, 5.6 mM or 16.7 mM glucose, 45 min
Protocol: as §1, §2

[6] = tested on: MIN6 pancreatic beta cell; assay: Insulin secretion in MIN6 cells with GLP-1R antagonist exendin (9-39); assay type: cell-based, mouse; settings: CYSTM1 10 nM, exendin (9-39) 10 nM
[7] = tested on: diet-induced obesity and diabetes mouse model; assay: Acute glucose tolerance test after i.p. injection or oral gavage of recombinant CYSTM1 in high-fat diet mice; assay type: in vivo; settings: 1 h before GTT, obese mice, vs PBS
Protocol: In this example, an acute intraperitoneal (i.p.) glucose tolerance test (GTT) was performed using different administration methods of delivering recombinant CYSTM1 proteins. 8-week-old male C57BL/6J mice fed a high-fat diet for 12 weeks (diet-induced obesity and diabetes mouse model) were treated with different concentrations of CYSTM1 through i.p. injection (FIG. 3A-3C) or oral administration (FIGS. 3D-3F) for 1 h following a GTT by intraperitoneal injections of […]. Circulating CYSTM1 and insulin levels were determined by enzyme-linked immunosorbent assay (ELISA) (ImmunoDiagnostics, Hong Kong), and the glucose level was determined by a glucometer (Roche Diabetes Care, Indianapolis, IN, USA). […] As human and mouse CYSTM1 share high identity (89.4%) and similarity (90.4%), and human CYSTM1 appears to also lower circulating glucose in the db/db mice (a genetic mouse model of obesity and diabetes), it could be expected that human CYSTM1 may also function similarly with respect to human circulating glucose in an obese, diabetic human subject.

[8] = tested on: high fat diet-induced obese (HFD) mice; assay: Chronic daily oral gavage of CYSTM1 in high-fat diet-induced obese mice; assay type: in vivo, mouse
Protocol: In this example, 8-week-old male C57BL/6J mice fed with a high-fat diet (HFD) were treated daily with an oral gavage of recombinant CYSTM1 protein (1 mg/kg), and the control group of mice were gavaged with saline daily. CYSTM1 treatment was carried out after 8 weeks of HFD feeding (FIG. 4A).

[9] = tested on: mouse primary adipocytes; assay: 2-NBDG glucose uptake in mouse primary adipocytes; assay type: cell-based; settings: mouse primary adipocytes, CYSTM1 1-1000 nM, 1 h
Protocol: as §3

[10] = tested on: db/db mice; assay: Acute glucose tolerance test after i.p. injection of human CYSTM1 in db/db mice; assay type: in vivo, mouse; settings: acute i.p. injection 1 mg/kg BW, vs PBS
[11] = i.p. injection of CYSTM1 (0.5 and 1 mg/kg BW)
[12] = oral gavage of CYSTM1 1 mg/kg BW

Row | Molecule | insulin secretion [1] | feeding blood glucose level ([2]; 1 mg/kg oral daily) | glucose regulation by IPGTT ([2]; day 15, 1 mg/kg oral daily) | insulin secretion [3] | glucose (2-NBDG) uptake [4] | insulin secretion [5] | insulin secretion induced by CYSTM1 in presence of exendin (9-39) [6] | circulating insulin [7, 11] | glucose levels (GTT) [7, 11] | circulating insulin [7, 12] | glucose levels (GTT) [7, 12] | feeding blood glucose level ([8]; 1 mg/kg oral gavage once daily, HFD mice, vs saline) | fasting insulin concentration ([8]; day 10, 1 mg/kg oral gavage once daily, HFD mice, vs saline) | glucose homeostasis by IPGTT ([8]; day 20, 1 mg/kg oral gavage once daily, vs control HFD-fed mice) | glucose (2-NBDG) uptake [9] | glucose levels (GTT) [10]
1 | cysteine rich transmembrane module containing 1 (protein, UniProt Q8K353 1-104, looked up, recombinant mouse CYSTM1 protein, 104 amino acid long glucoregulatory peptide) Cysteine-rich and …: MNPENPPPYPGPGPTAPYPPYPQQPMGPMGPMGAPPPQGYPYPPPQGYPYQGYPQYGWQGGPQEPPKTTVYVVEDQRRDDLGPSTCLTACWTALCCCCLWDMLT | concentration-dependent increase in insulin secretion | significantly lower feeding blood glucose level | protects from STZ-induced glucose dysregulation | concentration-dependent increase in insulin secretion | concentration-dependent increase | concentration-dependent increase in insulin secretion | not affected by the presence of exendin (9-39) | increase circulating insulin | lower glucose levels | increase circulating insulin | lower glucose levels | significantly reduced feeding blood glucose level | decreased level of fasting insulin concentration | better glucose homeostasis | concentration-dependent increase | 
2 | cysteine rich transmembrane module containing 1 (protein, UniProt Q9H1C7 1-97, looked up, human CYSTM1, 97 amino acid long peptide) Cysteine-rich and …: MNQENPPPYPGPGPTAPYPPYPPQPMGPGPMGGPYPPPQGYPYQGYPQYGWQGGPQEPPKTTVYVVEDQRRDELGPSTCLTACWTALCCCCLWDMLT |  |  |  |  |  |  |  |  |  |  |  |  |  |  |  | lower glucose levels

From US20240382561A1, “GLUCOREGULATORY COMPOUND, COMPOSITION AND USES THEREOF” (THE HONG KONG POLYTECHNIC UNIVERSITY, priority 2021, published 2024)
